From patent EP2500357A2 (Abbott Laboratories, dated 2012)
Read-outs that look alike come from different tables or passages of the source. One block for each binder: values may come before it.

Key:
Assay in all cases: cell-based or functional assay
recombinant human IL-1α [1] = biological target: T1, recombinant human IL-1α (human, UniProt P01583 113-271)
T1 sequence (looked up): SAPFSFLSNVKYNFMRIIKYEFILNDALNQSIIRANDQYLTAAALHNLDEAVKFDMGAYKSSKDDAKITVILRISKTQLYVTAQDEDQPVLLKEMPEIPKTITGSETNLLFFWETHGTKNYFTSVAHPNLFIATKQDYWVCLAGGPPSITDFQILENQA

recombinant human IL-1α [2] = biological target: T1, recombinant human IL-1α; remark: listed apart in the source
recombinant human IL-1β [3] = biological target: T2, recombinant human IL-1β (human, UniProt P01584 117-269)
recombinant human IL-1α [4] = biological target: T1, recombinant human IL-1α; remark: listed apart in the source
recombinant human IL-1β [5] = biological target: T2, recombinant human IL-1β; remark: listed apart in the source
recombinant human IL-1α [6] = biological target: T1, recombinant human IL-1α; remark: listed apart in the source
recombinant human IL-1β [7] = biological target: T2, recombinant human IL-1β; remark: listed apart in the source
recombinant human IL-1β [8] = biological target: T2, recombinant human IL-1β; remark: listed apart in the source

B2: hIL-1a/bDVD6b-Ig (bispecific antibody, human IgG1, kappa)
heavy: not shown
light: QIVLTQSPAIMSASPGEKVTITCSASSSVSYMHWFQQKPGASPKLWIYSTSNLASGVPARFSGSGSGTSYSLTVSRMEAEDAATYYCQQRSTYPYTFGGGTKLEIKRTVAAPSVFIFPPQIVLTQSPALMSASPGEKVTMTCSASSSVNYMYWYQQKPRSSPKPWIYLTSNLASGVPARFSGSGSGTSYSLTISSMEAEDAATYYCQQWNSNPYTFGGGTKLEMKRTVAAPSVFIFPPSDEQLKSGTASVVCLLNNFYPREAKVQWKVDNALQSGNSQESVTEQDSKDSTYSLSSTLTLSKADYEKHKVYACEVTHQGLSSPVTKSFNRGEC
- Potency (IC50), MRC-5 bioassay (recombinant human IL-1α [2]): 1 nM
- Potency (IC50), MRC-5 bioassay (recombinant human IL-1β [3]): 0.75 nM

B4: murine anti-hIL-1α mAb 18F4.2C8 (antibody, V domains shown)
VH: EVQLQQSGAELVKPGASVKLSCTASGLNIKDTYMHWLKQRPEQGLEWIGRIDPANGNAKYDPRFLGKATITADTSSNTAYLQLSSLTSEDTAVYYCARGDGNFHFDYWGQGTTLTVSS
VL: DIVMTQSQRFMSTSVGDRVSVTCKASQNVGTNIAWYQQKPGQSPRALIYSASYRYSGVPDRFTGSGSGTDFTLTISNVQSVDLAEYFCQQYTRYPLTFGGGTKLEIKR
- IC50, inhibition of IL-8 production by MRC-5 cells (recombinant human IL-1α [1]): 0.089 nM
- IC50, MRC-5 bioassay (recombinant human IL-1α [2]): 0.33 nM

B6: hIL-1a/bDVD6a-Ig (bispecific antibody, human IgG1, kappa)
heavy: not shown
light: QIVLTQSPALMSASPGEKVTMTCSASSSVNYMYWYQQKPRSSPKPWIYLTSNLASGVPARFSGSGSGTSYSLTISSMEAEDAATYYCQQWNSNPYTFGGGTKLEMKRTVAAPSVFIFPPQIVLTQSPAIMSASPGEKVTITCSASSSVSYMHWFQQKPGASPKLWIYSTSNLASGVPARFSGSGSGTSYSLTVSRMEAEDAATYYCQQRSTYPYTFGGGTKLEIKRTVAAPSVFIFPPSDEQLKSGTASVVCLLNNFYPREAKVQWKVDNALQSGNSQESVTEQDSKDSTYSLSSTLTLSKADYEKHKVYACEVTHQGLSSPVTKSFNRGEC
- Potency (IC50), MRC-5 bioassay (recombinant human IL-1α [2]): 2.3 nM
- Potency (IC50), MRC-5 bioassay (recombinant human IL-1β [3]): 70 nM

B7: murine anti-hIL-1α mAb 3D12.E3 (antibody, V domains shown)
VH: QIQLVQSGPELKKPGETVKISCKASGYTFRNYGMNWVKQAPGKDLKRMAWINTYTGESTYADDFKGRFAFSLETSASTAYLQINNLKNEDTATYFCARGIYYYGSSYAMDYWGQGTSVTVSS
VL: NIQMTQTTSSLSASLGDRVTISCRASQDISNCLNWYQQKPDGTVKLLIYYTSRLHSGVPSRFSGSGSGTDYSLTISNLEQEDIATYFCQQGKTLPYAFGGGTKLEINR
- IC50, inhibition of IL-8 production by MRC-5 cells (recombinant human IL-1α [1]): 0.67 nM
- Potency (IC50), MRC-5 bioassay (recombinant human IL-1α [6]): 0.67 nM

B8: chimeric 3D12.E3 Ab (3D12.E3-VH-hCγ1 / 3D12.E3-VL-hCk) (antibody, V domains shown)
VH: B7 VH
VL: B7 VL
- Potency (IC50), MRC-5 bioassay (recombinant human IL-1α [6]): 0.7 nM

B9: hIL-1a/bDVD3b-Ig (bispecific antibody, human IgG1, kappa)
heavy: not shown
light: ETTVTQSPASLSMAIGEKVTIRCITSTDIDVDMNWYQQKPGEPPKLLISQGNTLRPGVPSRFSSSGSGTDFVFIIENMLSEDVADYYCLQSDNLPLTFGAGTKLELKRTVAAPDIVMTQSQRFMSTSVGDRVSVTCKASQNVGTNIAWYQQKPGQSPRALIYSASYRYSGVPDRFTGSGSGTDFTLTISNVQSVDLAEYFCQQYTRYPLTFGGGTKLEIKRTVAAPSVFIFPPSDEQLKSGTASVVCLLNNFYPREAKVQWKVDNALQSGNSQESVTEQDSKDSTYSLSSTLTLSKADYEKHKVYACEVTHQGLSSPVTKSFNRGEC
- Potency (IC50), MRC-5 bioassay (recombinant human IL-1α [2]): 0.7 nM

B11: hIL-1a/bDVD3a-Ig (bispecific antibody, human IgG1, kappa)
heavy: not shown
light: DIVMTQSQRFMSTSVGDRVSVTCKASQNVGTNIAWYQQKPGQSPRALIYSASYRYSGVPDRFTGSGSGTDFTLTISNVQSVDLAEYFCQQYTRYPLTFGGGTKLEIKRTVAAPETTVTQSPASLSMAIGEKVTIRCITSTDIDVDMNWYQQKPGEPPKLLISQGNTLRPGVPSRFSSSGSGTDFVFIIENMLSEDVADYYCLQSDNLPLTFGAGTKLELKRTVAAPSVFIFPPSDEQLKSGTASVVCLLNNFYPREAKVQWKVDNALQSGNSQESVTEQDSKDSTYSLSSTLTLSKADYEKHKVYACEVTHQGLSSPVTKSFNRGEC
- Potency (IC50), MRC-5 bioassay (recombinant human IL-1α [2]): 0.75 nM

B12: hIL-1a/bDVD4a-Ig (bispecific antibody, human IgG1, kappa)
heavy: not shown
light: DIVMTQSQRFMSTSVGDRVSVTCKASQNVGTNIAWYQQKPGQSPRALIYSASYRYSGVPDRFTGSGSGTDFTLTISNVQSVDLAEYFCQQYTRYPLTFGGGTKLEIKRTVAAPSVFIFPPETTVTQSPASLSMAIGEKVTIRCITSTDIDVDMNWYQQKPGEPPKLLISQGNTLRPGVPSRFSSSGSGTDFVFIIENMLSEDVADYYCLQSDNLPLTFGAGTKLELKRTVAAPSVFIFPPSDEQLKSGTASVVCLLNNFYPREAKVQWKVDNALQSGNSQESVTEQDSKDSTYSLSSTLTLSKADYEKHKVYACEVTHQGLSSPVTKSFNRGEC
- Potency (IC50), MRC-5 bioassay (recombinant human IL-1α [2]): 0.35 nM
- Potency (IC50), MRC-5 bioassay (recombinant human IL-1β [3]): 10 nM

B13: murine anti-hIL-1β mAb 1B12.4H4 (antibody, V domains shown)
VH: QVHLKESGPGLVAPSQSLSITCTVSGFSLTDYGVSWIRQPPGKGLEWLGLIWGGGDTYYNSPLKSRLSIRKDNSKSQVFLKMNSLQTDDTAVYYCAKQRTLWGYDLYGMDYWGQGTSVTVSS
VL: ETTVTQSPASLSMAIGEKVTIRCITSTDIDVDMNWYQQKPGEPPKLLISQGNTLRPGVPSRFSSSGSGTDFVFIIENMLSEDVADYYCLQSDNLPLTFGAGTKLELKR
- IC50, inhibition of IL-8 production by MRC-5 cells (recombinant human IL-1β [8]): 0.53 nM
- IC50, MRC-5 bioassay (recombinant human IL-1β [3]): 0.6 nM

B15: hIL-1a/bDVD4b-Ig (bispecific antibody, human IgG1, kappa)
heavy: not shown
light: ETTVTQSPASLSMAIGEKVTIRCITSTDIDVDMNWYQQKPGEPPKLLISQGNTLRPGVPSRFSSSGSGTDFVFIIENMLSEDVADYYCLQSDNLPLTFGAGTKLELKRTVAAPSVFIFPPDIVMTQSQRFMSTSVGDRVSVTCKASQNVGTNIAWYQQKPGQSPRALIYSASYRYSGVPDRFTGSGSGTDFTLTISNVQSVDLAEYFCQQYTRYPLTFGGGTKLEIKRTVAAPSVFIFPPSDEQLKSGTASVVCLLNNFYPREAKVQWKVDNALQSGNSQESVTEQDSKDSTYSLSSTLTLSKADYEKHKVYACEVTHQGLSSPVTKSFNRGEC
- Potency (IC50), MRC-5 bioassay (recombinant human IL-1α [2]): 0.35 nM
- Potency (IC50), MRC-5 bioassay (recombinant human IL-1β [3]): 0.5 nM

More lines, now with the values ahead:

- IC50, inhibition of IL-8 production by MRC-5 cells (recombinant human IL-1α [1]): 0.24 nM
- IC50, MRC-5 bioassay (recombinant human IL-1α [2]): 0.24 nM
B1: murine anti-hIL-1α mAb 6H3.1A4.3E11 (antibody, V domains shown)
VH: QVQLQQPGAELVRPGASVKLSCKASGYTFTTYWMNWVKQRPEQGLEWIGRIDPYDSETLYSQKFKDTAILTVDKSSSTAYMQLSSLTSEDSAVYYCARYGFDYWGQGTTLTVSS
VL: QIVLTQSPALMSASPGEKVTMTCSASSSVNYMYWYQQKPRSSPKPWIYLTSNLASGVPARFSGSGSGTSYSLTISSMEAEDAATYYCQQWNSNPYTFGGGTKLEMKR

- dual-inhibition activity, IL-8 synthesis by MRC-5 cells with both IL-1α and IL-1β present (recombinant human IL-1α [4]): 1.2 nM
- neutralizing activity against hIL-1α relative to the chimeric Abs (recombinant human IL-1α [4]): 3 fold
- dual-inhibition activity, IL-8 synthesis by MRC-5 cells with both IL-1α and IL-1β present (recombinant human IL-1β [5]): 1.2 nM
- neutralizing activity to hIL-1β relative to DVD1-Ig (recombinant human IL-1β [5]): 3 fold
- Potency (IC50), MRC-5 bioassay (recombinant human IL-1α [6]): 2.9 nM
- Potency (IC50), MRC-5 bioassay (recombinant human IL-1β [7]): 1.6 nM
B3: hIL-1a/bDVD2-Ig (bispecific antibody, human IgG1, kappa)
heavy: not shown
light: NIVLTQSPASLAVSLGQRATISCRASESVDSYGNSYMHWYQQKPGQPPKLLIYLASNLESGVPARFSGSGSRTDFTLTIDPVEADDAATYYCQQNNEDPFTFGSGTKLEIKRADAAPNIQMTQTTSSLSASLGDRVTISCRASQDISNCLNWYQQKPDGTVKLLIYYTSRLHSGVPSRFSGSGSGTDYSLTISNLEQEDIATYFCQQGKTLPYAFGGGTKLEINRTVAAPSVFIFPPSDEQLKSGTASVVCLLNNFYPREAKVQWKVDNALQSGNSQESVTEQDSKDSTYSLSSTLTLSKADYEKHKVYACEVTHQGLSSPVTKSFNRGEC

- Potency (IC50), MRC-5 bioassay (recombinant human IL-1α [2]): 2.6 nM
- Potency (IC50), MRC-5 bioassay (recombinant human IL-1β [3]): 19 nM
B5: hIL-1a/bDVD5a-Ig (bispecific antibody, human IgG1, kappa)
heavy: not shown
light: QIVLTQSPALMSASPGEKVTMTCSASSSVNYMYWYQQKPRSSPKPWIYLTSNLASGVPARFSGSGSGTSYSLTISSMEAEDAATYYCQQWNSNPYTFGGGTKLEMKRTVAAPQIVLTQSPAIMSASPGEKVTITCSASSSVSYMHWFQQKPGASPKLWIYSTSNLASGVPARFSGSGSGTSYSLTVSRMEAEDAATYYCQQRSTYPYTFGGGTKLEIKRTVAAPSVFIFPPSDEQLKSGTASVVCLLNNFYPREAKVQWKVDNALQSGNSQESVTEQDSKDSTYSLSSTLTLSKADYEKHKVYACEVTHQGLSSPVTKSFNRGEC

- Potency (IC50), MRC-5 bioassay (recombinant human IL-1β [7]): 0.53 nM
B10: chimeric 13F5.G5 Ab (13F5.G5-VH-Cγ1 / 13F5.G5-VL-Cκ) (antibody, V domains shown)
VH: QVQLQQSGAELVRPGSSVKISCKASGYAFSSYWMNWVKQRPGQGLEWIGQIYPGDGDTNYNGKFKGKATLTADKSSSTSYMQLSGLTSEDSAMYFCVRFPTGNDYYAMDYWGQGTSVTVSS
VL: NIVLTQSPASLAVSLGQRATISCRASESVDSYGNSYMHWYQQKPGQPPKLLIYLASNLESGVPARFSGSGSRTDFTLTIDPVEADDAATYYCQQNNEDPFTFGSGTKLEIKR

- Potency (IC50), MRC-5 bioassay (recombinant human IL-1α [2]): 3.3 nM
- Potency (IC50), MRC-5 bioassay (recombinant human IL-1β [3]): 0.25 nM
B14: hIL-1a/bDVD5b-Ig (bispecific antibody, human IgG1, kappa)
heavy: not shown
light: QIVLTQSPAIMSASPGEKVTITCSASSSVSYMHWFQQKPGASPKLWIYSTSNLASGVPARFSGSGSGTSYSLTVSRMEAEDAATYYCQQRSTYPYTFGGGTKLEIKRTVAAPQIVLTQSPALMSASPGEKVTMTCSASSSVNYMYWYQQKPRSSPKPWIYLTSNLASGVPARFSGSGSGTSYSLTISSMEAEDAATYYCQQWNSNPYTFGGGTKLEMKRTVAAPSVFIFPPSDEQLKSGTASVVCLLNNFYPREAKVQWKVDNALQSGNSQESVTEQDSKDSTYSLSSTLTLSKADYEKHKVYACEVTHQGLSSPVTKSFNRGEC
